The results in this text go back to patent US20240294646A1.

By Kd is commonly meant the constant that tells how readily two partners part at equilibrium. A higher Kd goes with a looser complex.

Assay [1] has as its target FcγRIIaR (UniProt P12318). Briefly: SPR imaging (IBIS MX96), antibody spotted on chip, soluble receptor as analyte, kinetic fit, 25 C, pH 7.4.
Target sequence in this assay (P12318 34-217 H167R limits assumed): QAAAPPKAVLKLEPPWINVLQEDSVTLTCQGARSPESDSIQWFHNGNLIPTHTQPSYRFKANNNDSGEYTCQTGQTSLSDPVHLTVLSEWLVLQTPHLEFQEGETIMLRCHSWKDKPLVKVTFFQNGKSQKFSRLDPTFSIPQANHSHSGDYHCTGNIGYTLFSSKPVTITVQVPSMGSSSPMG
Assay [2] concerns the target FcγRIIb (UniProt P31994). Described as above.
Target sequence in this assay (P31994 43-217): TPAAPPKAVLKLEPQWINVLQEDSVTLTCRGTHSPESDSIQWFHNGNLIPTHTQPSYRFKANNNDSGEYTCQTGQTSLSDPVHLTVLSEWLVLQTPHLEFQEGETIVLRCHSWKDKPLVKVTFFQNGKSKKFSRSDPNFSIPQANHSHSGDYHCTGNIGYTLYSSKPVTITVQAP
Assay [3] deals with FcγRIIb soluble extracellular domain with C-terminal 10xHis tag (UniProt P31994). Put plainly: SPR; IIb selectivity of variant / that of control v27294. On the technique in general: SPR reads the build-up and loss of mass on a sensor chip optically.
The target is the same in assay [4]. Put plainly: SPR, OAA captured on HER2, receptor in solution; KD(WT v16463)/KD(variant).
For assay [5], the target named is FcγRIIaR soluble extracellular domain with C-terminal 10xHis tag (UniProt P12318). The description is as above.
Assay [6] addresses FcγRIIb soluble extracellular domain with C-terminal 10xHis tag (UniProt P31994). Put plainly: SPR; IIb-Fold/IIaR-Fold (FcγRIIb against FcγRIIaR).
For assay [7] the target is unchanged. Put plainly: SPR, OAA captured on HER2, receptor in solution; KD(control v27294)/KD(variant).
The target of a further assay is C1q (human) (UniProt P02745). Put plainly: ELISA; antibody coated on the plate, human C1q added; signal as % of wild-type. A general note: An ELISA detects its analyte on a solid surface through an enzyme-linked reagent.
Assay [8] has as its target FcγRIIb (UniProt P31994). Put plainly: SPR; ratio of IIb-Fold to IIaR-Fold (FcγRIIb against FcγRIIaR).
Target sequence in this assay (P31994 43-217): as above
Assay [9] concerns the target FcγRIIaR (UniProt P12318). Put plainly: SPR; antibody captured on immobilised HER2, soluble FcγR as analyte; fold over wild-type.
Target sequence in this assay (P12318 34-217): as the sequence (P12318 34-217 H167R limits assumed) above, with R134H counted along it
Assay [10] deals with FcγRIIb (UniProt P31994). The description is as above.
Target sequence in this assay (P31994 43-217): as the sequence (P31994 43-217) above
For assay [11], the target named is FcγRIIaR (UniProt P12318). Put plainly: SPR (Protocol 1), one-armed antibody captured on HER2, receptor as analyte; fold over wild-type.
Target sequence in this assay (P12318 34-217): as the sequence (P12318 34-217 H167R limits assumed) above, with R134H counted along it
In assay [12] the target is FcγRIIb (UniProt P31994). The description is as above.
Target sequence in this assay (P31994 43-217 limits assumed): as the sequence (P31994 43-217) above
Assay [13] deals with FcγRIIb (UniProt P31994). Briefly: SPR (Protocol 1); IIb-Fold over IIaR-Fold.
Target sequence in this assay (P31994 43-217 limits assumed): as the sequence (P31994 43-217) above
The target in assay [14] is FcγRIIaR (UniProt P12318). Briefly: SPR (Protocol 1), one-armed antibody captured on HER2, receptor as analyte; ratio to wild-type.
Target sequence in this assay (P12318 34-217): as the sequence (P12318 34-217 H167R limits assumed) above, with R134H counted along it
Assay [15] concerns the target FcγRIIb (UniProt P31994). Described as above.
Target sequence in this assay (P31994 43-217 limits assumed): as the sequence (P31994 43-217) above
Assay [16] concerns the target FcγRIIb (UniProt P31994). Briefly: SPR (Protocol 1); FcγRIIb ratio over FcγRIIaR ratio.
Target sequence in this assay (P31994 43-217 limits assumed): as the sequence (P31994 43-217) above
The target in assay [17] is Soluble FcγRIIb extracellular domain with C-terminal 10xHis tag (UniProt P31994). Put plainly: SPR (Biacore 4000); variant captured on HER2, receptor in solution.
For assay [18], the target named is Soluble FcγRIIaR extracellular domain with C-terminal 10xHis tag (UniProt P12318). The description is as above.
Assay [19] addresses Soluble FcγRIIb extracellular domain with C-terminal 10xHis tag (UniProt P31994). Briefly: SPR, antibody captured on immobilised HER2, soluble receptor as analyte.
In assay [20] the target is Soluble FcγRIIaR extracellular domain with C-terminal 10xHis tag (UniProt P12318). The description is as above.

C1q (human), sequence (P02745 23-245 limits assumed, chain 1 of 3): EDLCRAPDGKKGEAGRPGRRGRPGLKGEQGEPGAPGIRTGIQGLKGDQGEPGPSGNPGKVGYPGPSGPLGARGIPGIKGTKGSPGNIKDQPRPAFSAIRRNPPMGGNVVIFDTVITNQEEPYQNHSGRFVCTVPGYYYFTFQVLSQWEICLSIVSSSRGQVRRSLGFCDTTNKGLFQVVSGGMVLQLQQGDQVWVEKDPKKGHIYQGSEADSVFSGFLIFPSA
C1q (human), sequence (P02746 28-253 limits assumed, chain 2 of 3, further chain): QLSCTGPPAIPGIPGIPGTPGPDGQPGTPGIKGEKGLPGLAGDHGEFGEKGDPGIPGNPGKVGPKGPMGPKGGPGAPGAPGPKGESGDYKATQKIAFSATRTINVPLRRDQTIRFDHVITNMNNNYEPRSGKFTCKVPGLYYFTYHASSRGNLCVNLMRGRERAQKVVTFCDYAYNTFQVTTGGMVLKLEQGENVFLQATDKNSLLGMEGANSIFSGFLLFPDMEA
C1q (human), sequence (P02747 29-245 limits assumed, chain 3 of 3, further chain): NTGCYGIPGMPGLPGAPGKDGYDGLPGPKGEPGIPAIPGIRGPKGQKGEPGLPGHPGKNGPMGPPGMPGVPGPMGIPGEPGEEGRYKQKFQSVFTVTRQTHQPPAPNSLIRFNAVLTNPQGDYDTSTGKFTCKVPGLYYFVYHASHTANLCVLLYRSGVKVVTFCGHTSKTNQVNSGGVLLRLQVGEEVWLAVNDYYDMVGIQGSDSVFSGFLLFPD
FcγRIIb soluble extracellular domain with C-terminal 10xHis tag, sequence (P31994 other isoform, or with tags, fused parts or gaps limits assumed): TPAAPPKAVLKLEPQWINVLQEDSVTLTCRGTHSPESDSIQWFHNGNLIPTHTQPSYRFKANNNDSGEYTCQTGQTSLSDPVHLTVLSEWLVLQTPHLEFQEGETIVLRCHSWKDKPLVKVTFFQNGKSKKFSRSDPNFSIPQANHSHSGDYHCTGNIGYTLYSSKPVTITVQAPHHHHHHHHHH
Soluble FcγRIIb extracellular domain with C-terminal 10xHis tag, sequence (P31994 other isoform, or with tags, fused parts or gaps): as the sequence (P31994 other isoform, or with tags, fused parts or gaps limits assumed) above
Soluble FcγRIIaR extracellular domain with C-terminal 10xHis tag, sequence (P12318 other isoform, or with tags, fused parts or gaps): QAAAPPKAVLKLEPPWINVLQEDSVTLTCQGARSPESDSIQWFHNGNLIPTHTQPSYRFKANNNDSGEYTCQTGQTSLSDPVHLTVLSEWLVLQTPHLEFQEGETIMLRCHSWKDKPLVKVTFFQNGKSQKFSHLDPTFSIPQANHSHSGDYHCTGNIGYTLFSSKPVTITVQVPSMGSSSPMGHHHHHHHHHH
FcγRIIaR soluble extracellular domain with C-terminal 10xHis tag, sequence (P12318 other isoform, or with tags, fused parts or gaps): as above

Turning to “Variant 21653 (WT), anti-CD19 (4G7) full-size antibody”, the Kd with FcγRIIaR [1] stood at 720 nM; with FcγRIIb [2] it was 2200 nM.

As to “Variant 21653 (WT), anti-CD40 (Chi Lob 7/4) full-size antibody”, the Kd with FcγRIIaR [1] is 560 nM; with FcγRIIb [2] it was 2100 nM.

For “Variant 26847 (A_L234F_G236N_H268Q_A327G_A330T_P331S / B_G236D_S239D_V266L_S267A_H268D) (antibody)”, the IIb Selectivity Improvement wrt Control in assay [3] amounted to 1.7 fold. For the same substance, in assay [4], the IIb-Fold was 53.3 fold. Further, the IIaR-fold in [5] was determined as 2.4 fold. For the same substance, the IIb Selectivity in assay [6] was 22.6 fold. Also, in assay [7], the IIb-Fold wrt Control came to 0.6 fold.

Take “Variant 22128 (trastuzumab FSA; A: L234F_G236N_H268Q_K274Q_A327G_A330K_P331S; B: L234F_G236D_S239D_V266L_S267A_H268D_K274Q_A327G_A330S_P331S) (antibody)”: the C1q Binding (% WT) with C1q (human) was 3 % WT. In addition, the IIb Selectivity (IIb-Fold/IIaR-Fold) in the assay with FcγRIIb [8] came to 9 fold. The same substance yielded an IIaR-fold (fold change in affinity over wild-type) with FcγRIIaR [9] of 4 fold. The substance further showed an IIb-fold (fold change in affinity over wild-type) with FcγRIIb [10] of 33 fold.

As to “variant 16490, one-armed trastuzumab antibody (Scaffold 2), G236D in both chains”, in the assay with FcγRIIaR [11], the IIaR-Fold (fold affinity over wild-type) amounted to 0.81 fold. The IIb-Fold (fold affinity over wild-type) in the assay with FcγRIIb [12] came out at 2.22 fold. Moreover, in the assay with FcγRIIb [13], the IIb/IIaR Selectivity stood at 2.75. Besides, the Ka,mut/Ka,WT with FcγRIIaR [14] is 0.81; with FcγRIIb [15] it was 2.22. Besides, the Selectivity IIb/IIaR with FcγRIIb [16] was 2.7.

In [3], “Variant 26940 (A_L234F_G236N_H268Q_A327G_A330K_P331S / B_G236D_G237D_S239D_V266L_S267A_H268D) (antibody)” registered an IIb Selectivity Improvement wrt Control of 1.7 fold. This substance returned an IIb-Fold in assay [4] of 304 fold. In assay [5], this substance displayed an IIaR-fold of 13.1 fold. Also, the IIb Selectivity in [6] stood at 23.3 fold. The substance further showed an IIb-Fold wrt Control in assay [7] of 3.3 fold.

Regarding “variant 16585, one-armed trastuzumab antibody (Scaffold 2), L234D in both chains”, in the assay with FcγRIIaR [11], the IIaR-Fold (fold affinity over wild-type) stood at 0.17 fold. Besides, in the assay with FcγRIIb [12], the IIb-Fold (fold affinity over wild-type) worked out at 0.47 fold. In the assay with FcγRIIb [13], this substance showed an IIb/IIaR Selectivity of 2.7. Further, the results for the Ka,mut/Ka,WT with FcγRIIaR [14] and with FcγRIIb [15] were 0.17 and 0.47, respectively. The Selectivity IIb/IIaR with FcγRIIb [16] turned out to be 2.7.

With “variant 16578, one-armed trastuzumab antibody (Scaffold 2), A327G_A330S_P331S_L234F_H268Q_K274Q in both chains”, the IIaR-Fold (fold affinity over wild-type) with FcγRIIaR [11] amounted to 0.47 fold. The IIb-Fold (fold affinity over wild-type) with FcγRIIb [12] came out at 2.03 fold. Besides, the IIb/IIaR Selectivity in the assay with FcγRIIb [13] worked out at 4.35. Further, the Ka,mut/Ka,WT with FcγRIIaR [14] came to 0.47; with FcγRIIb [15], 2.03. The Selectivity IIb/IIaR with FcγRIIb [16] came out at 4.4.

Regarding “Variant 31256 (trastuzumab FSA; A: L234F_G236N_H268Q_A327G_P329I_A330K_P331S; B: G236D_G237D_S239D_V266L_S267A_H268D) (antibody)”, the C1q Binding (% WT) in the assay with C1q (human) is 3 % WT. The IIb Selectivity (IIb-Fold/IIaR-Fold) with FcγRIIb [8] was determined as 34 fold. Besides, the IIaR-fold (fold change in affinity over wild-type) with FcγRIIaR [9] worked out at 4 fold. Moreover, in the assay with FcγRIIb [10], the IIb-fold (fold change in affinity over wild-type) is 121 fold.

On to “Variant 26939 (A_L234F_G236N_H268Q_A327G_A330K_P331S / B_G236D_G237N_S239D_V266L_S267A_H268D) (antibody)”, for which the IIb Selectivity Improvement wrt Control in assay [3] came to 1.5 fold. The same substance returned an IIb-Fold in assay [4] of 542 fold. The IIaR-fold in assay [5] is 27.5 fold. This substance came in with an IIb Selectivity in [6] of 19.7 fold. Further, the IIb-Fold wrt Control in assay [7] was 5.8 fold.

As for “v26132 (A_N236L_strat1), one-armed trastuzumab antibody”, the Kd was 2.7 nM in [17] and 7.3 nM in assay [18].

“Variant 26931 (A_L234F_G236N_H268Q_A327G_A330K_P331S / B_G236D_G237L_S239D_V266L_S267A_H268D) (antibody)” yielded an IIb Selectivity Improvement wrt Control in assay [3] of 1.6 fold. In assay [4], this substance displayed an IIb-Fold of 296 fold. Further, the IIaR-fold in [5] is 14.2 fold. The same substance registered an IIb Selectivity in assay [6] of 20.9 fold. In assay [7], this substance yielded an IIb-Fold wrt Control of 3.2 fold.

Consider “v26128 (A_L235P_strat1), one-armed trastuzumab antibody”, for which the values for the Kd in assay [17] and in assay [18] were 6.5 nM and 18 nM, respectively.

“v26129 (A_N236G_strat1), one-armed trastuzumab antibody”: the Kd in assay [17] was determined as 4.6 nM; in assay [18], 8.9 nM.

For the substance “Variant 31190 (trastuzumab FSA; A: L234F_L235D_G236N_H268Q_A327G_A330K_P331S; B: G236D_G237L_S239D_V266L_S267A_H268D) (antibody)”, in the assay with C1q (human), the C1q Binding (% WT) was determined as 2 % WT. Also, the IIb Selectivity (IIb-Fold/IIaR-Fold) in the assay with FcγRIIb [8] worked out at 26 fold. The substance further came in with an IIaR-fold (fold change in affinity over wild-type) with FcγRIIaR [9] of 7 fold. For the same substance, the IIb-fold (fold change in affinity over wild-type) with FcγRIIb [10] came out at 187 fold.

Regarding “Variant 27294, Launching Module 2 (A_L234F_G236N_H268Q_A327G_A330K_P331S / B_G236D_S239D_V266L_S267A_H268D), one-armed trastuzumab antibody”, the Kd in assay [19] was 16 nM; in assay [20], 44 nM.

With “Variant 26663 (A_L234F_G236N_S267A_H268Q_A327G_A330K_P331S / B_G236D_S239D_V266L_S267A_H268D) (antibody)”, the IIb Selectivity Improvement wrt Control in assay [3] is 1.8 fold. This substance also displayed an IIb-Fold in assay [4] of 62.1 fold. The substance further registered an IIaR-fold in [5] of 2.6 fold. The substance further had an IIb Selectivity in assay [6] of 23.6 fold. In addition, the IIb-Fold wrt Control in [7] is 0.7 fold.

On to “variant 16572, one-armed trastuzumab antibody (Scaffold 2), L234F in both chains”, for which the IIaR-Fold (fold affinity over wild-type) with FcγRIIaR [11] was 0.21 fold. In addition, the IIb-Fold (fold affinity over wild-type) with FcγRIIb [12] amounted to 0.52 fold. Also, the IIb/IIaR Selectivity in the assay with FcγRIIb [13] turned out to be 2.48. Besides, the results for the Ka,mut/Ka,WT with FcγRIIaR [14] and with FcγRIIb [15] were 0.21 and 0.52, respectively. Moreover, the Selectivity IIb/IIaR with FcγRIIb [16] stood at 2.5.

In the case of “variant 16533, one-armed trastuzumab antibody (Scaffold 2), S267I in both chains”, the IIaR-Fold (fold affinity over wild-type) in the assay with FcγRIIaR [11] turned out to be 0.98 fold. The IIb-Fold (fold affinity over wild-type) with FcγRIIb [12] was 2.69 fold. Also, the IIb/IIaR Selectivity in the assay with FcγRIIb [13] stood at 2.75. Also, the Ka,mut/Ka,WT with FcγRIIaR [14] was found to be 0.98; in the assay with FcγRIIb [15], 2.69. Moreover, the Selectivity IIb/IIaR with FcγRIIb [16] is 2.8.

Take “v26130 (A_N236A_strat1), one-armed trastuzumab antibody”: the Kd in [17] was found to be 4 nM; in assay [18], 12 nM.

Turning to “v26131 (A_N236V_strat1), one-armed trastuzumab antibody”, the Kd worked out at 3 nM in assay [17] and 8 nM in [18].

For “Variant 22127 (trastuzumab FSA; A: L234D_G236N_S267A; B: G236D_S239D_V266L_S267A_H268D) (antibody)”, in the assay with C1q (human), the C1q Binding (% WT) came out at 215 % WT. For the same substance, the IIb Selectivity (IIb-Fold/IIaR-Fold) in the assay with FcγRIIb [8] came to 12 fold. Also, the IIaR-fold (fold change in affinity over wild-type) with FcγRIIaR [9] stood at 4 fold. In the assay with FcγRIIb [10], this substance gave an IIb-fold (fold change in affinity over wild-type) of 49 fold.

Turning to “Variant 21653 (WT), anti-HER2 (trastuzumab) full-size antibody”, the Kd was 630 nM in the assay with FcγRIIaR [1] and 2000 nM in the assay with FcγRIIb [2].

For the substance “Variant 26593 (A_L234F_L235D_G236N_H268Q_A327G_A330K_P331S / B_G236D_S239D_V266L_S267A_H268D) (antibody)”, the IIb-Fold in assay [4] is 65.2 fold. In [5], this substance had an IIaR-fold of 2.5 fold. Further, the IIb Selectivity in assay [6] was 26.3 fold. In addition, the IIb-Fold wrt Control in [7] amounted to 0.7 fold.

On to “v12 (IIb-specific comparator, symmetrical E233D_G237D_P238D_H268D_P271G_A330R), anti-CD40 (Chi Lob 7/4) full-size antibody”, for which the Kd with FcγRIIaR [1] worked out at 390 nM. That is a sub-micromolar value.
